We go through 1 molecule from paper PMC6737914, “Dissection of GTPase-activating proteins reveals functional asymmetry in the COPI coat of budding yeast” (Journal of Cell Science, 2019).

The target of the assay is T1, TAP-purified coatomer (TAP-tagged β′-COP) (S. cerevisiae, UniProt P53622 1-1201; P41811 1-889; P40509 1-296; P41810 1-973; P32074 1-935; P43621 …).
T1 construct: α-COP subunit of coatomer, S. cerevisiae; β′-COP subunit of coatomer, S. cerevisiae, TAP-tagged; ε-COP subunit of coatomer, S. cerevisiae; β-COP subunit of coatomer, S. cerevisiae; γ-COP subunit of coatomer, S. cerevisiae; δ-COP subunit of coatomer, S. cerevisiae; ζ-COP subunit of coatomer, S. cerevisiae; The complex was released by TEV cleavage after the incubation with Glo3; also called …
As to the kind of experiment: pull-down; TAP-immobilised COPI incubated with a molar excess of MBP-Glo3 (ΔAmpH) for 20 min at 4°C, washed, eluted by TEV cleavage; Coomassie staining and western blots. Particulars: both partners purified.

B1: MBP-Glo3 (ΔAmpH), Glo3 (1–459) lacking its distal amphipathic helix (domain or fragment)
chain: not shown
notes: Glo3, S. cerevisiae, residues 1-459, without the distal amphipathic helix (printed as 459–493); After TEV elution of the complex the eluates were incubated with amylose resin to deplete MBP; also called Glo3 lacking a C-terminal amphipathic helix; source: E. coli Rosetta (DE3) or BL21 (pREP4), purified (Ni-IDA resin), dialysed
B1: the binding result is “binds”.
